Reference: patent US20240317834A1, “COMPOSITIONS AND METHODS FOR NEUROLOGICAL DISEASES” (CODA BIOTHERAPEUTICS, INC., priority 2020, published 2024)

How the values were obtained:
[1] = Sensitivity of parental chimera SEQ ID NO: 33 to ligands relative to wild type α7-nAChR
[2] = test system: Lenti-X 293T cells; assay: YFP fluorescence quenching anion reporter plate reader assay of engineered receptors stimulated with acetylcholine or a non-native ligand; assay type: cell-based
In short: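 Lenti-X 293T cells carrying a YFP anion reporter were transiently transfected with channel DNA and assayed the next day in HEPES-buffered ECS at pH 7.2. Ligand (acetylcholine or non-native ligand) was added in NaI-substituted ECS. Percent quench was the mean of the last 10 s relative to the 15 s pre-addition baseline.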

B1: CODA71: parental chimeric LGIC: human α7-nAChR ligand binding domain with GlyRα1 Cys-loop fused to human GlyRα1 ion pore domain (protein)
chain: MRCSPGGVWLALAASLLHVSLQGEFQRKLYKELVKNYNPLERPVANDSQPLTVYFSLSLLQIMDVDEKNQVLTTNIWLQMSWTDHYLQWNVSEYPGVKTVRFPDGQIWKPDILLYNSADERFDATFHTNVLVNSSGHCQYLPPGIFKSSCPMDLKNFPMDVQTCKLKFGSWSYGGWSLDLQMQEADISGYIPNGEWDLVGIPGKRSERFYECCKEPYPDVTFTVTMRRRMGYYLIQMYIPSLLIVILSWISFWINMDAAPARVGLGITTVLTMTTQSSGSRASLPKVSYVKAIDIWMAVCLLFVFSALLEYAAVNFVSRQHKELLRFRRKRRHHKSPMLNLFQEDEAGEGRFNFSAYGMGPACLQAKDGISVKGANNSNTTNPPPAPSKSPEEMRKLFIQRAKKIDKISRIGFPMAFLIFNMFYWIIYKIVRREDVHNQ
modifications: synthetic sequence of chimeric LGIC
- sensitivity to ABT-126 compared with wild type α7-nAChR ([1]; ligand ABT-126): approximately as sensitive
- fold more sensitive to AZD-0328 than wild type ([1]; ligand AZD-0328): approximately 3 fold
- fold more sensitive to Facinicline/RG3487 than wild type ([1]; ligand Facinicline/RG3487): ~10 fold
- sensitivity to TC-6987 compared with wild type α7-nAChR ([1]; ligand TC-6987): approximately as sensitive
- type of agonist activity of TC-6987 on the receptor ([1]; ligand TC-6987, similar to wild type): partial agonist activity
- sensitivity to acetylcholine compared with wild type α7-nAChR ([1]; ligand acetylcholine): approximately as sensitive
- fold less sensitive to nicotine than wild type ([1]; ligand nicotine): ~2 fold
- YFP fluorescence quenching using CNL001 ([2]; 1 nM CNL001, first column): 3.727%
- YFP fluorescence quenching using CNL001 ([2]; 1 nM CNL001, second column): 20.231%
- YFP fluorescence quenching using TC-5619/Bradanicline ([2]; 1 nM brd): 9.41%
- YFP fluorescence quenching using TC-5619/Bradanicline ([2]; 3 nM brd): 44.38%
- YFP fluorescence quenching using Varenicline ([2]; 3 nM var, first column): −2.36
- YFP fluorescence quenching using Varenicline ([2]; 3 nM var, second column): −3.522
- YFP fluorescence quenching using CNL001 ([2]; 10 nM CNL001, first column): 81.096%
- YFP fluorescence quenching using CNL001 ([2]; 10 nM CNL001, second column): 82.368%
- YFP fluorescence quenching using TC-5619/Bradanicline ([2]; 10 nM brd): 76.61%
- YFP fluorescence quenching using TC-5619/Bradanicline ([2]; 30 nM brd): 70.23%
- YFP fluorescence quenching using Facinicline ([2]; 30 nM fac): 53.42
- YFP fluorescence quenching using Varenicline ([2]; 30 nM var, first column): −4.255
- YFP fluorescence quenching using Varenicline ([2]; 30 nM var, second column): −3.636
- YFP fluorescence quenching using CNL001 ([2]; 50 nM CNL001, first column): 83.62%
- YFP fluorescence quenching using CNL001 ([2]; 50 nM CNL001, second column): 84.482%
- YFP fluorescence quenching using ABT-126 ([2]; 50 nM abt): −1.98%
- YFP fluorescence quenching using CNL001 ([2]; 100 nM CNL001, first column): 84.297%
- YFP fluorescence quenching using CNL001 ([2]; 100 nM CNL001, second column): 85.368%
- YFP fluorescence quenching using CNL002 ([2]; 100 nM CNL002): 49.61%
- YFP fluorescence quenching using ABT-126 ([2]; 100 nM abt): 24.27%
- YFP fluorescence quenching using AZD-0328 ([2]; 100 nM azd0328): 73.59%
- YFP fluorescence quenching using TC-5619/Bradanicline ([2]; 100 nM brd): 78.62%
- YFP fluorescence quenching using Facinicline ([2]; 100 nM fac): 83.6
- YFP fluorescence quenching using ABT-126 ([2]; 300 nM abt): 56.8%
- YFP fluorescence quenching using AZD-0328 ([2]; 300 nM azd0328): 78.09%
- YFP fluorescence quenching using TC-5619/Bradanicline ([2]; 300 nM brd): 75.51%
- YFP fluorescence quenching using Facinicline ([2]; 300 nM fac): 77.44
- YFP fluorescence quenching using Varenicline ([2]; 300 nM var, first column): 46.195
- YFP fluorescence quenching using Varenicline ([2]; 300 nM var, second column): 45.522
- YFP fluorescence quenching using ABT-126 ([2]; 500 nM abt): 76.28%
- YFP fluorescence quenching using Varenicline ([2]; 500 nM var, first column): 69.253
- YFP fluorescence quenching using Varenicline ([2]; 500 nM var, second column): 71.705
- YFP fluorescence quenching using CNL001 ([2]; 1 uM CNL001, first column): 85.647%
- YFP fluorescence quenching using CNL001 ([2]; 1 uM CNL001, second column): 86.358%
- YFP fluorescence quenching using CNL002 ([2]; 1 uM CNL002): 74.15%
- YFP fluorescence quenching using ABT-126 ([2]; 1 uM abt): 73.16%
- YFP fluorescence quenching using TC-6987 ([2]; 1 uM tc6987): 31.56
- YFP fluorescence quenching using Varenicline ([2]; 1 uM var, first column): 79.254
- YFP fluorescence quenching using Varenicline ([2]; 1 uM var, second column): 79.244
- YFP fluorescence quenching using ABT-126 ([2]; 3 uM abt): 70.98%
- YFP fluorescence quenching using TC-6987 ([2]; 3 uM tc6987): 31.82
- YFP fluorescence quenching using TC-6987 ([2]; 5 uM tc6987): 30.75
- YFP fluorescence quenching using ABT-126 ([2]; 10 uM abt): 72.62%
- YFP fluorescence quenching using TC-6987 ([2]; 10 uM tc6987): 56.68
- YFP fluorescence quenching using CNL002 ([2]; 30 uM CNL002): 75.21%
- YFP fluorescence quenching using ABT-126 ([2]; 30 uM abt): 77.49%
- YFP fluorescence quenching using AZD-0328 ([2]; 30 uM azd0328): 79.05%
- YFP fluorescence quenching using Facinicline ([2]; 30 uM fac): 79.62
- YFP fluorescence quenching using TC-6987 ([2]; 30 uM tc6987): 51.46
- YFP fluorescence quenching using ABT-126 ([2]; 50 uM abt): 77.96%
- YFP fluorescence quenching using TC-6987 ([2]; 50 uM tc6987): 61.26
- YFP fluorescence quenching using ABT-126 ([2]; 100 uM abt): 77.81%
- YFP fluorescence quenching using TC-6987 ([2]; 100 uM tc6987): 43.21
- YFP fluorescence quenching using TC-6987 ([2]; 300 uM tc6987): 7.79
- YFP fluorescence quenching using TC-6987 ([2]; 500 uM tc6987): 51.58
- percent quench of YFP fluorescence, 30 nM TC-6683 ([2]; TC-6683 30 nM): −14.43%
- percent quench of YFP fluorescence, 300 nM TC-6683 ([2]; TC-6683 300 nM): −13.08%
- percent quench of YFP fluorescence, 3 uM TC-6683 ([2]; TC-6683 3 uM): −13.71%
- percent quench of YFP fluorescence, 30 uM TC-6683 ([2]; TC-6683 30 uM): −14.02%
- percent quench of YFP fluorescence, 100 uM TC-6683 ([2]; TC-6683 100 uM): −8.77%
- percent quench of YFP fluorescence, 10 uM ach ([2]; acetylcholine 10 uM): 15.61%
- percent quench of YFP fluorescence, 30 uM ach ([2]; acetylcholine 30 uM): 63.31%
- percent quench of YFP fluorescence, 50 uM ach ([2]; acetylcholine 50 uM): 73.16%
- percent quench of YFP fluorescence, 100 uM ach ([2]; acetylcholine 100 uM): 74.94%
- percent quench of YFP fluorescence, 300 uM ach ([2]; acetylcholine 300 uM): 65.94%
- percent quench of YFP fluorescence, 500 uM ach ([2]; acetylcholine 500 uM): 62.78%
- percent quench of YFP fluorescence, 1 mM ach ([2]; acetylcholine 1 mM): 74.24%
- percent quench of YFP fluorescence, 3 mM ach ([2]; acetylcholine 3 mM): 76.27%
- percent quench of YFP fluorescence, 5 mM ach ([2]; acetylcholine 5 mM): 77.15%
- percent quench of YFP fluorescence, 10 mM ach ([2]; acetylcholine 10 mM): 77.96%
